Results as given in article PMC7593272.

Target: T1, response regulator Awo_c25920 (Reg) (Acetobacterium woodii) (UniProt H6LEQ6)
T1 sequence: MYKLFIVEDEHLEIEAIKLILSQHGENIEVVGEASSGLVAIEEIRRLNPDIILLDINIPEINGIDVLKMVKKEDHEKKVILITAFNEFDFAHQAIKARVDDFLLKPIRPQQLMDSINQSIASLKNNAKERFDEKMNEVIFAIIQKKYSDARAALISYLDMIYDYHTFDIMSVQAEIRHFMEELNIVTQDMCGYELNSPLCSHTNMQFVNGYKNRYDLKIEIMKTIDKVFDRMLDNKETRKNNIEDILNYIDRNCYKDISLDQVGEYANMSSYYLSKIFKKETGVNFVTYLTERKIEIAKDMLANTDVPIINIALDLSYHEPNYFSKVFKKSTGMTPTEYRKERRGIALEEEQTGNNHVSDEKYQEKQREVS
Experiment: EMSA
Conditions: EMSA in 12 ul buffer B: 50 mM Tris-HCl, 125 mM NaCl, 10 mM glycerol, 5 mM MgCl2, pH 7.8, 6% native PAGE in 1X TAE at 4 C, ethidium bromide stain

Sequence: CATAAAACTAAAAAAATAGTCAAAAAAGCAGAACAGGAAAACCTTAGGGTTAACCTGTTCTTTTTATACGTTAGAATTAGAAATGTGATTTTAAAGTACAGGTATTAGACAAAATATTACACTATGTTTTTATGGATAGAGACAAAAAACAGCGTTAGTAAAAGGTTTTCAAGGTGGTTTTAAGAAACAAACAATAATTTTATAAGAATAGCACAAGTAATTACCATAGCCTTTGAATTAAAATATAGTTAGTTCAGTAATAAAATCTTGTAATTAAGGAGGATAGAGCTT (double strand) [291 bp intergenic region upstream of pduA]
- binding: binds
